Experimental data reported in patent publication US20210269512A1 (NOVOBIND LIVESTOCK THERAPEUTICS, published 2021).
Where a chain is given by its changes, count along the chain named.

T1: Cpa (phospholipase) (Clostridium perfringens, UniProt P0C216 29-398)
T1 sequence: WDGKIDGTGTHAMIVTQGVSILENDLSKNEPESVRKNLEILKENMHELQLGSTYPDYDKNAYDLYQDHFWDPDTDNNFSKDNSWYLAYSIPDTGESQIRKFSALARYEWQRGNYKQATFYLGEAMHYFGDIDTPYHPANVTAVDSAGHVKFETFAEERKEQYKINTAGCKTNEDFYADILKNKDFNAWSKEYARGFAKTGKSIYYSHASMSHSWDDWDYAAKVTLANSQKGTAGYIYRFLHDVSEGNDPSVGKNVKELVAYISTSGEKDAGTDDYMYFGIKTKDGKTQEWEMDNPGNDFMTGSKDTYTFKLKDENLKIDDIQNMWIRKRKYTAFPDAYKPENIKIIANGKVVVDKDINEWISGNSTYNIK

B1: NBX0338 (VHH)
VHH: QVQLQESGGGLVQAGDSLRLSCATSGRSFSSYTMGWFRQTPGKEREFVAAISWSGTYYTDSVKGRFTISRDNAKNTVYLQMNSLKPEDTAVYYCAVGSRRLYYSSDINYWGQGTQVTVSS
B2: NBX0329 (VHH)
VHH: B1 VHH with D16G, R27L, S28T, F29V, S31R, E44D, R70V, T76M, V96A, S105N
B3: NBX0339 (VHH)
VHH: B1 VHH with R27L, S28T, F29V, S31R, T76M, V96A, Y102H
B4: NBX0340 (VHH)
VHH: QVQLQESGGGLVQAGESLRLSCLAAGRTFSTSTLGWFRQAPGLEREFVAAIRYTSDYTARTTDYADSVKGRFAISRDYIKQAVYLQMNNLKPEDTAVYYCAAAKYGMGYSDPSGYTYWGQGTQVTVSS
B5: NBX0330 (VHH)
VHH: QVQLQESGGGLVQAGGSLRLSCAASSRTFSNYAMAWFRQTPGKEREFLATINGDTTFTIYADSVKGRFTISRDNAKNTLYLQMNSLKAEDTAVYYCAARQWNPTMRERDYGYWGQGTEVTVSS

What follows are binders tested against T1, Cpa (phospholipase) (assay: phage ELISA, coated antigen).

Binder | binding result
B1 | binds
B2 | binds
B3 | binds
B4 | binds
B5 | binds
